Test results published in patent US20060104978.

Assays:
[1] = target: T1, CUBc-myc (CUB domain of PDGF-C, residues 1 to 165, with a human c-myc tag), Q9NRA1
T1 chain: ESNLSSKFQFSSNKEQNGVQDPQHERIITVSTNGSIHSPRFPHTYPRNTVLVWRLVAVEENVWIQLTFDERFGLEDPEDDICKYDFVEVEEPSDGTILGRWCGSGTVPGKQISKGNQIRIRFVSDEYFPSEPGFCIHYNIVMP

[2] = target: PDGF-CC deletion mutant ΔN150, Q9NRA1
[3] = target: PDGF-CC deletion mutant ΔN210, Q9NRA1
[4] = target: PDGF-CC deletion mutant ΔN190, Q9NRA1
[5] = target: full-length PDGF-C expressed in transfected COS-1 cells (latent PDGF-CC), Q9NRA1
[6] = target: cleavage site mutant of mouse PDGF-C (-K-K-S-K- replaced by four alanines), Q8CI19
[7] = target: full-length PDGF-D expressed in transfected COS-1 cells (latent PDGF-DD), Q9GZP0
[8] = target: PDGF-CC deletion mutant ΔN230, Q9NRA1
[9] = target: PDGF-CC deletion mutant ΔN170, Q9NRA1
[10] = target: T2, chimeric PDCUBPC (CUB region of PDGF-D, hinge/core region of PDGF-C), Q9GZP0
T2 chain: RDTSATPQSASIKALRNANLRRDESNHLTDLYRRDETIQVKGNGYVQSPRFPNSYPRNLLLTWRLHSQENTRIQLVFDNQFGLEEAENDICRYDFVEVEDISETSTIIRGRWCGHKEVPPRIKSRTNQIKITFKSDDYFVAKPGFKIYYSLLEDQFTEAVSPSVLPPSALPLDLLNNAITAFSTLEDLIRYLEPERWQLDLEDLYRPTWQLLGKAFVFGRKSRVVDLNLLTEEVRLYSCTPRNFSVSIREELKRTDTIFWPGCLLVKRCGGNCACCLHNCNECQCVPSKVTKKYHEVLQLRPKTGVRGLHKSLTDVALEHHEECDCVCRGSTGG

[11] = target: recombinant His6-tagged latent (full-length) PDGF-DD, Q9GZP0
[12] = target: recombinant His6-tagged latent (full-length) human PDGF-CC, Q9NRA1
[13] = target: T3, endogenous latent PDGF-CC secreted by primary mouse fibroblasts, Q8CI19
T3 chain: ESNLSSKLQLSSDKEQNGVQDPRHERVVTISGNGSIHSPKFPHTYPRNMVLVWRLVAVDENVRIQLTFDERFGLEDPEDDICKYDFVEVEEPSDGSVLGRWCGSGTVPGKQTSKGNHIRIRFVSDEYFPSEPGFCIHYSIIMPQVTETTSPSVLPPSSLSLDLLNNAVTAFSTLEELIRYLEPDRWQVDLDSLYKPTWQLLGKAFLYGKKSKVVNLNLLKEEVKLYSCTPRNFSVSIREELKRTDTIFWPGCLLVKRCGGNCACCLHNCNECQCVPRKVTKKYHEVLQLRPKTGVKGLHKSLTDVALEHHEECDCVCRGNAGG

B1: full-length human tPA expressed in transfected COS-1 cells (pSG5) (protein)
chain: SYQVICRDEKTQMIYQQHQSWLRPVLRSNRVEYCWCNSGRAQCHSVPVKSCSEPRCFNGGTCQQALYFSDFVCQCPEGFAGKCCEIDTRATCYEDQGISYRGTWSTAESGAECTNWNSSALAQKPYSGRRPDAIRLGLGNHNYCRNPDRDSKPWCYVFKAGKYSSEFCSTPACSEGNSDCYFGNGSAYRGTHSLTESGASCLPWNSMILIGKVYTAQNPSAQALGLGKHNYCRNPDGDAKPWCHVLKNRRLTWEYCDVPSCSTCGLRQYSQPQFRIKGGLFADIASHPWQAAIFAKHRRSPGERFLCGGILISSCWILSAAHCFQERFPPHHLTVILGRTYRVVPGEEEQKFEVEKYIVHKEFDDDTYDNDIALLQLKSDSSRCAQESSVVRTVCLPPADLQLPDWTECELSGYGKHEALSPFYSERLKEAHVRLYPSSRCTSQHLLNRTVTDNMLCAGDTRSGGPQANLHDACQGDSGGPLVCLNDGRMTLVGIISWGLGCGQKDVPGVYTKVTNYLDWIRDNMRP
- cleavage of full-length PDGF-CC by tPA in the cotransfection assay (immunoblot) [1]: the CUB domain efficiently competed for the interaction and processing of latent PDGF-CC by tPA
- proteolytic cleavage in the cotransfection assay (immunoblot) [2]: neither chimeric PDCUBPC, nor the truncation mutants lacking the CUB domain, were efficiently cleaved
- proteolytic cleavage in the cotransfection assay (immunoblot) [3]: neither chimeric PDCUBPC, nor the truncation mutants lacking the CUB domain, were efficiently cleaved
- proteolytic cleavage in the cotransfection assay (immunoblot) [4]: neither chimeric PDCUBPC, nor the truncation mutants lacking the CUB domain, were efficiently cleaved
- proteolytic cleavage in the cotransfection assay (SDS-PAGE, immunoblot) [5]: tPA released the growth factor domain of latent PDGFCC, and the fragment migrated as a 22 kDa species under reducing conditions
- proteolytic cleavage in the cotransfection assay (immunoblot) [6]: the mutant was resistant to tPA-mediated cleavage
- proteolytic cleavage in the cotransfection assay (SDS-PAGE, immunoblot) [7]: neither of the two enzymes was able to cleave and activate latent PDGF-DD
- proteolytic cleavage in the cotransfection assay (immunoblot) [8]: neither chimeric PDCUBPC, nor the truncation mutants lacking the CUB domain, were efficiently cleaved
- proteolytic cleavage in the cotransfection assay (immunoblot) [9]: neither chimeric PDCUBPC, nor the truncation mutants lacking the CUB domain, were efficiently cleaved
- proteolytic cleavage in the cotransfection assay (immunoblot) [10]: neither chimeric PDCUBPC, nor the truncation mutants lacking the CUB domain, were efficiently cleaved

B2: human neurotrypsin (NT) expressed in transfected COS-1 cells (pSG5) (protein)
chain: FDSVLNDSLHHSHRHSPPAGPHYPYYLPTQQRPPRTRPPPPLPRFPRPPRALPAQRPHALQAGHTPRPHPWGCPAGEPWVSVTDFGAPCLRWAEVPPFLERSPPASWAQLRGQRHNFCRSPDGAGRPWCFYGDARGKVDWGYCDCRHGSVRLRGGKNEFEGTVEVYASGVWGTVCSSHWDDSDASVICHQLQLGGKGIAKQTPFSGLGLIPIYWSNVRCRGDEENILLCEKDIWQGGVCPQKMAAAVTCSFSHGPTFPIIRLAGGSSVHEGRVELYHAGQWGTVCDDQWDDADAEVICRQLGLSGIAKAWHQAYFGEGSGPVMLDEVRCTGNELSIEQCPKSSWGEHNCGHKEDAGVSCTPLTDGVIRLAGGKGSHEGRLEVYYRGQWGTVCDDGWTELNTYVVCRQLGFKYGKQASANHFEESTGPIWLDDVSCSGKETRFLQCSRRQWGRHDCSHREDVSIACYPGGEGHRLSLGFPVRLMDGENKKEGRVEVFINGQWGTICDDGWTDKDAAVICRQLGYKGPARARTMAYFGEGKGPIHVDNVKCTGNERSLADCIKQDIGRHNCRHSEDAGVICDYFGKKASGNSNKESLSSVCGLRLLHRRQKRIIGGKNSLRGGWPWQVSLRLKSSHGDGRLLCGATLLSSCWVLTAAHCFKRYGNSTRSYAVRVGDYHTLVPEEFEEEIGVQQIVIHREYRPDRSDYDIALVRLQGPEEQCARFSSHVLPACLPLWRERPQKTASNCYITGWGDTGRAYSRTLQQAAIPLLPKRFCEERYKGRFTGRMLCAGNLHEHKRVDSCQGDSGGPLMCERPGESWVVYGVTSWGYGCGVKDSPGVYTKVSAFVPWIKSVTKL
- proteolytic cleavage in the cotransfection assay (SDS-PAGE, immunoblot) [5]: neurotrypsin (NT) lacked proteolytic activity toward latent PDGF-CC
- proteolytic cleavage in the cotransfection assay (SDS-PAGE, immunoblot) [7]: neither of the two enzymes was able to cleave and activate latent PDGF-DD

B3: tPA purified from human melanoma cells (T7776, Sigma) (protein)
chain: SYQVICRDEKTQMIYQQHQSWLRPVLRSNRVEYCWCNSGRAQCHSVPVKSCSEPRCFNGGTCQQALYFSDFVCQCPEGFAGKCCEIDTRATCYEDQGISYRGTWSTAESGAECTNWNSSALAQKPYSGRRPDAIRLGLGNHNYCRNPDRDSKPWCYVFKAGKYSSEFCSTPACSEGNSDCYFGNGSAYRGTHSLTESGASCLPWNSMILIGKVYTAQNPSAQALGLGKHNYCRNPDGDAKPWCHVLKNRRLTWEYCDVPSCSTCGLRQYSQPQFRIKGGLFADIASHPWQAAIFAKHRRSPGERFLCGGILISSCWILSAAHCFQERFPPHHLTVILGRTYRVVPGEEEQKFEVEKYIVHKEFDDDTYDNDIALLQLKSDSSRCAQESSVVRTVCLPPADLQLPDWTECELSGYGKHEALSPFYSERLKEAHVRLYPSSRCTSQHLLNRTVTDNMLCAGDTRSGGPQANLHDACQGDSGGPLVCLNDGRMTLVGIISWGLGCGQKDVPGVYTKVTNYLDWIRDNMRP
- in vitro cleavage with purified tPA (SDS-PAGE, immunoblot) [11]: PDGF-CC, but not PDGF-DD, is a substrate for tPA
- in vitro cleavage with purified tPA (SDS-PAGE, immunoblot) [12]: PDGF-CC, but not PDGF-DD, is a substrate for tPA

B4: endogenous tPA of primary mouse fibroblasts (protein)
chain: SYRATCRDEPTQTTYQQHQSWLRPMLRSSRVEYCRCNSGLVQCHSVPVRSCSEPRCFNGGTCQQALYFSDFVCQCPDGFVGKRCDIDTRATCFEEQGITYRGTWSTAESGAECINWNSSVLSLKPYNARRPNAIKLGLGNHNYCRNPDRDLKPWCYVFKAGKYTTEFCSTPACPKGKSEDCYVGKGVTYRGTHSLTTSQASCLPWNSIVLMGKSYTAWRTNSQALGLGRHNYCRNPDGDARPWCHVMKDRKLTWEYCDMSPCSTCGLRQYKRPQFRIKGGLYTDITSHPWQAAIFVKNKRSPGERFLCGGVLISSCWVLSAAHCFLERFPPNHLKVVLGRTYRVVPGEEEQTFEIEKYIVHEEFDDDTYDNDIALLQLRSQSKQCAQESSSVGTACLPDPNLQLPDWTECELSGYGKHEASSPFFSDRLKEAHVRLYPSSRCTSQHLFNKTVTNNMLCAGDTRSGGNQDLHDACQGDSGGPLVCMINKQMTLTGIISWGLGCGQKDVPGVYTKVTNYLDWIHDNMKQ
- processing of latent PDGF-CC in medium of tPA-deficient against wild-type fibroblasts (immunoblot) [13]: the generation of double species migrating as 22-25 kDa was reduced to less than 10%
